The target of the assay is T1, アミロイドβ (antigen of the amyloid β ELISA) (UniProt P05067 672-713).
T1 construct: also called Aβ
Briefly: amyloid β ELISA, conditioned medium of transient transfection. On the technique in general: An ELISA detects its analyte on a solid surface through an enzyme-linked reagent.

T1 sequence (P05067 672-713): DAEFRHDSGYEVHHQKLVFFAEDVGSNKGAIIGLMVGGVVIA

B1: C2 HuVH AF バージョン3 + キメラC2カッパ鎖 (transient) (antibody, name in Kabat numbering, V domains shown)
VH: EVQLVESGGGLVQPGGSLRLSCAASGFTFSSYGMSWVRQAPGKGLELVASINSNGGSTYYPDSVKGRFTISRDNAKNSLYLQMNSLRAEDTAVYYCARGDYWGQGTTVTVSS
VL: DVVMTQTPLSLPVSLGDQASISCRSSQSLVYSNGDTYLHWYLQKPGQSPKLLIYKVSNRFSGVPDRFSGSGSGTDFTLKISRVEAEDLGVYFCSQSTHVPWTFGGGTKLEIK
notes: Transient expression
In the case of B1, the binding result is “no binding”.

These data come from patent publication JP2023110925A (dated 2023).
